Source: patent US20180086804A1 (COMMISSARIAT A L ENERGIE ATOMIQUE ET AUX ENERGIES …, published 2018)
No end group written: not given here.

B1: CCNB1 342-356 (peptide)
peptide: SQIAAGAFCLALKIL-NH2
B2: CCNB1 199-213 (peptide)
peptide: GNMRAILIDWLVQVQ-NH2
B3: CCNB1 244-258 (peptide)
peptide: LQLVGVTAMFIASKY-NH2
B4: CCNB1 366-380 (peptide)
peptide: QHYLSYTEESLLPVM-NH2
B5: CCNB1 241-255 (peptide)
peptide: KKMLQLVGVTAMFIA-NH2
B6: CCNB1 402-416 (peptide)
peptide: NKYATSKHAKISTLP-NH2
B7: CCNB1 172-186 (peptide)
peptide: KDIYAYLRQLEEEQA-NH2
B8: CCNB1 392-406 (peptide)
peptide: QGLTKHMTVKNKYAT-NH2
B9: CCNB1 396-410 (peptide)
peptide: KHMTVKNKYATSKHA-NH2
B10: CCNB1 179-193 (peptide)
peptide: RQLEEEQAVRPKYLL-NH2
B11: CCNB1 291-305 (peptide)
peptide: RALNFGLGRPLPLHF-NH2
B12: CCNB1 332-346 (peptide)
peptide: LDYDMVHFPPSQIAA-NH2
B13: CCNB1 359-373 (peptide)
peptide: GEWTPTLQHYLSYTE-NH2
B14: CCNB1 54-68 (peptide)
peptide: EQLQAKMPMKKEAKP-NH2
B15: CCNB1 71-85 (peptide)
peptide: TGKVIDKKLPKPLEK-NH2
B16: CCNB1 9-23 (peptide)
peptide: SKINAENKAKINMAG-NH2
B17: CCNB1 189-203 (peptide)
peptide: PKYLLGREVTGNMRA-NH2
B18: CCNB1 310-324 (peptide)
peptide: SKIGEVDVEQHTLAK-NH2
B19: CCNB1 140-154 (peptide)
peptide: EDLCQAFSDVILAVN-NH2
B20: CCNB1 185-199 (peptide)
peptide: QAVRPKYLLGREVTG-NH2
B21: CCNB1 43-57 (peptide)
peptide: TALGDIGNKVSEQLQ-NH2
B22: CCNB1 50-64 (peptide)
peptide: NKVSEQLQAKMPMKK-NH2
B23: CCNB1 37-51 (peptide)
peptide: PGLRPRTALGDIGNK-NH2
B24: CCNB1 58-72 (peptide)
peptide: AKMPMKKEAKPSATG-NH2
B25: CCNB1 347-361 (peptide)
peptide: GAFCLALKILDNGEW-NH2
B26: CCNB1 147-161 (peptide)
peptide: SDVILAVNDVDAEDG-NH2
B27: CCNB1 108-122 (peptide)
peptide: EPVKEEKLSPEPILV-NH2
B28: CCNB1 128-142 (peptide)
peptide: SPMETSGCAPAEEDL-NH2
B29: CCNB1 81-95 (peptide)
peptide: KPLEKVPMLVPVPVS-NH2
B30: CCNB1 231-245 (peptide)
peptide: DRFMQNNCVPKKMLQ-NH2
B31: CCNB1 151-165 (peptide)
peptide: LAVNDVDAEDGADPN-NH2

Molecular target: T1, HLA-DR7 (HLA-DRB1*07:01) (human)
T1 construct: mature; purified from homozygous EBV-transformed lymphoblastoid cells with antibody L243
Experiment: competition ELISA vs biotin-YKL

First: B1
Second: B2
The relative affinity of the first is higher: 20 for the first, 10 for the second.

B3 and B4 are the same in relative affinity: 1 for the first, 1 for the second.

Work on B5 yielded a relative affinity of 0.1.

Molecular target: T1, HLA-DR7 (HLA-DRB1*07:01)
Experiment: competition ELISA vs biotin-YKL
Remark: another data set of the same source

Going from B6 to B7, the relative affinity rises from 9 to 1600.

B8 and B9 are the same in relative affinity: 533 for the first, 533 for the second.

Going from B10 to B11, the relative affinity falls from 271 to 3.

Compared with B12, B13 is lower in relative affinity: 20 for the first, 0.4 for the second.

B14 was tested, and the relative affinity was 808.

Molecular target: T2, HLA-DRB4 (HLA-DRB4*01:01) (human)
T2 construct: mature; purified from homozygous EBV-transformed lymphoblastoid cells with antibody L243
Experiment: competition ELISA vs biotin-E2/E168

Going from B1 to B2, the relative affinity falls from 57 to 9.

In the case of B3, the relative affinity is reported as 98.

Molecular target: T3, HLA-DR3 (HLA-DRB1*03:01) (human)
T3 construct: mature; purified from homozygous EBV-transformed lymphoblastoid cells with antibody L243
Experiment: competition ELISA vs biotin-MT 2-16

First: B2
Second: B3
The relative affinity of the first is lower: 1 for the first, 9 for the second.

B5 showed a relative affinity of 15.

Molecular target: T3, HLA-DR3 (HLA-DRB1*03:01)
Experiment: competition ELISA vs biotin-MT 2-16
Remark: another data set of the same source

Going from B15 to B16, the relative affinity falls from 228 to 22.

Going from B7 to B8, the relative affinity rises from 33 to 408.

Compared with B17, B18 is lower in relative affinity: 764 for the first, 306 for the second.

B19 gave a relative affinity of 161.

Molecular target: T4, HLA-DR13 (HLA-DRB1*13:01) (human)
T4 construct: mature; purified from homozygous EBV-transformed lymphoblastoid cells with antibody L243
Experiment: competition ELISA vs biotin-B1 21-36

First: B20
Second: B21
The relative affinity of the first is lower: 4 for the first, 1790 for the second.

Compared with B22, B16 is lower in relative affinity: 258 for the first, 146 for the second.

Compared with B23, B7 is lower in relative affinity: 422 for the first, 5 for the second.

First: B8
Second: B9
The relative affinity of the first is lower: 7 for the first, 9 for the second.

First: B10
Second: B24
The relative affinity of the first is higher: 943 for the first, 683 for the second.

B18 gave a relative affinity of 1800.

Molecular target: T5, HLA-DR15 (HLA-DRB1*15:01) (human)
T5 construct: mature; purified from homozygous EBV-transformed lymphoblastoid cells with antibody L243
Experiment: competition ELISA vs biotin-A3 152-166

First: B1
Second: B2
The relative affinity of the first is higher: 21 for the first, 1 for the second.

First: B3
Second: B4
The relative affinity of the first is lower: 1 for the first, 47 for the second.

Binder B5 has a relative affinity of 1.

Molecular target: T6, HLA-DR1 (HLA-DRB1*01:01) (human)
T6 construct: mature; class II HLA molecule purified from homozygous EBV-transformed lymphoblastoid cells with antibody L243
Experiment: competition ELISA vs biotin-HA 306-318;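 also: HLA and competitor incubated 24 to 72 h, maximal signal taken from wells lacking competitor, background from wells lacking HLA molecule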

First: B1
Second: B2
The relative affinity of the first is higher: 46 for the first, 27 for the second.

First: B3
Second: B4
The relative affinity of the first is lower: 2 for the first, 32 for the second.

B5 was tested, and the relative affinity was 3.

Molecular target: T7, HLA-DRB5 (HLA-DRB5*01:01) (human)
T7 construct: mature; purified from homozygous EBV-transformed lymphoblastoid cells with antibody L243
Experiment: competition ELISA vs biotin-HA 306-318;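 also: HLA and competitor incubated 24 to 72 h, maximal signal taken from wells lacking competitor, background from wells lacking HLA molecule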

Compared with B2, B3 is lower in relative affinity: 58 for the first, 1 for the second.

Going from B4 to B5, the relative affinity falls from 471 to 1.

Molecular target: T8, HLA-DR4 (HLA-DRB1*04:01) (human)
T8 construct: mature; purified from homozygous EBV-transformed lymphoblastoid cells with antibody L243
Experiment: competition ELISA vs biotin-HA 306-318;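 also: HLA and competitor incubated 24 to 72 h, maximal signal taken from wells lacking competitor, background from wells lacking HLA molecule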

Compared with B2, B4 is higher in relative affinity: 56 for the first, 65 for the second.

In the case of B5, the relative affinity is reported as 1.

Molecular target: T9, HLA-DR11 (HLA-DRB1*11:01) (human)
T9 construct: mature; purified from homozygous EBV-transformed lymphoblastoid cells with antibody L243
Experiment: competition ELISA vs biotin-HA 306-318;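 also: HLA and competitor incubated 24 to 72 h, maximal signal taken from wells lacking competitor, background from wells lacking HLA molecule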

Going from B1 to B2, the relative affinity rises from 3 to 77.

First: B3
Second: B4
The relative affinity of the first is lower: 23 for the first, 55 for the second.

B5 showed a relative affinity of 90.

Molecular target: T5, HLA-DR15 (HLA-DRB1*15:01)
Experiment: competition ELISA vs biotin-A3 152-166
Remark: another data set of the same source

Going from B25 to B21, the relative affinity rises from 1 to 300.

Going from B26 to B7, the relative affinity rises from 7 to 11.

Compared with B9, B11 is lower in relative affinity: 229 for the first, 65 for the second.

First: B12
Second: B13
The relative affinity of the first is higher: 36 for the first, 0.2 for the second.

Binder B19 has a relative affinity of 207.

Molecular target: T6, HLA-DR1 (HLA-DRB1*01:01)
Experiment: competition ELISA vs biotin-HA 306-318
Remark: another data set of the same source

Going from B20 to B27, the relative affinity rises from 59 to 894.

First: B6
Second: B28
The relative affinity of the first is lower: 367 for the first, 3590 for the second.

First: B7
Second: B29
The relative affinity of the first is lower: 42 for the first, 524 for the second.

First: B9
Second: B30
The relative affinity of the first is higher: 7480 for the first, 11 for the second.

Compared with B10, B11 is lower in relative affinity: 9000 for the first, 1 for the second.

First: B12
Second: B17
The relative affinity of the first is higher: 224 for the first, 17 for the second.

Going from B13 to B14, the relative affinity rises from 548 to 3740.

Molecular target: T7, HLA-DRB5 (HLA-DRB5*01:01)
Experiment: competition ELISA vs biotin-HA 306-318
Remark: another data set of the same source

Going from B20 to B15, the relative affinity falls from 1670 to 250.

Compared with B6, B22 is lower in relative affinity: 1730 for the first, 51 for the second.

Going from B16 to B7, the relative affinity falls from 1000 to 775.

Going from B8 to B30, the relative affinity rises from 47 to 1580.

First: B10
Second: B11
The relative affinity of the first is higher: 2160 for the first, 4 for the second.

Going from B12 to B13, the relative affinity falls from 1580 to 224.

Compared with B14, B18 is higher in relative affinity: 35 for the first, 1500 for the second.

Molecular target: T8, HLA-DR4 (HLA-DRB1*04:01)
Experiment: competition ELISA vs biotin-HA 306-318
Remark: another data set of the same source

Compared with B20, B6 is higher in relative affinity: 260 for the first, 707 for the second.

Going from B26 to B8, the relative affinity rises from 54 to 577.

First: B29
Second: B9
The relative affinity of the first is higher: 500 for the first, 408 for the second.

Going from B30 to B11, the relative affinity rises from 52 to 1410.

Going from B31 to B12, the relative affinity falls from 667 to 289.

Going from B17 to B13, the relative affinity rises from 34 to 500.

For B19, the relative affinity was 1110.

Molecular target: T9, HLA-DR11 (HLA-DRB1*11:01)
Experiment: competition ELISA vs biotin-HA 306-318
Remark: another data set of the same source

First: B25
Second: B20
The relative affinity of the first is lower: 9 for the first, 22 for the second.

Going from B6 to B22, the relative affinity rises from 4 to 1550.

First: B16
Second: B7
The relative affinity of the first is higher: 490 for the first, 1 for the second.

Going from B8 to B9, the relative affinity falls from 693 to 7.

First: B30
Second: B24
The relative affinity of the first is higher: 2000 for the first, 40 for the second.

First: B11
Second: B12
The relative affinity of the first is higher: 1000 for the first, 511 for the second.

Compared with B17, B13 is higher in relative affinity: 3 for the first, 22 for the second.

First: B14
Second: B18
The relative affinity of the first is higher: 1410 for the first, 190 for the second.

Molecular target: T10, HLA-DRB3 (HLA-DRB3*01:01) (human)
T10 construct: mature; purified from homozygous EBV-transformed lymphoblastoid cells with antibody L243
Experiment: competition ELISA vs biotin-LOL 191-210

Compared with B1, B2 is lower in relative affinity: 239 for the first, 9 for the second.

First: B3
Second: B4
The relative affinity of the first is higher: 267 for the first, 32 for the second.

Molecular target: T11, HLA-DP401 (HLA-DPB1*04:01) (human, UniProt P20036 29-222)
T11 construct: mature; purified from homozygous EBV-transformed lymphoblastoid cells with antibody B7/21
Experiment: competition ELISA vs biotin-Oxy 271-287;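 also: plates incubated 24–72 h, maximum binding defined by wells lacking competitor, background by wells lacking HLA molecule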

Compared with B1, B2 is lower in relative affinity: 79 for the first, 36 for the second.

Going from B3 to B4, the relative affinity falls from 77 to 0.2.

With B5 the relative affinity was 424.

Molecular target: T12, HLA-DP402 (HLA-DPB1*04:02) (human, UniProt P20036 29-222)
T12 construct: mature; purified from homozygous EBV-transformed lymphoblastoid cells with antibody B7/21
Experiment: competition ELISA vs biotin-Oxy 271-287;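 also: plates incubated 24–72 h, maximum binding defined by wells lacking competitor, background by wells lacking HLA molecule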

Going from B1 to B2, the relative affinity falls from 25 to 24.

First: B3
Second: B4
The relative affinity of the first is higher: 32 for the first, 0.3 for the second.

B5 showed a relative affinity of 35.
